Legend:
human Protein S [1] = molecular target: T1, human Protein S (human, UniProt P07225 42-676); test: competition ELISA IC50
T1 construct: Called 'full length Protein S' / 'human full-length Protein S'; It was coated on plates (ELISA), Eu-labeled (LANCE) or immobilized on a chip (Biacore); also called PS; full length Protein S
T1 sequence: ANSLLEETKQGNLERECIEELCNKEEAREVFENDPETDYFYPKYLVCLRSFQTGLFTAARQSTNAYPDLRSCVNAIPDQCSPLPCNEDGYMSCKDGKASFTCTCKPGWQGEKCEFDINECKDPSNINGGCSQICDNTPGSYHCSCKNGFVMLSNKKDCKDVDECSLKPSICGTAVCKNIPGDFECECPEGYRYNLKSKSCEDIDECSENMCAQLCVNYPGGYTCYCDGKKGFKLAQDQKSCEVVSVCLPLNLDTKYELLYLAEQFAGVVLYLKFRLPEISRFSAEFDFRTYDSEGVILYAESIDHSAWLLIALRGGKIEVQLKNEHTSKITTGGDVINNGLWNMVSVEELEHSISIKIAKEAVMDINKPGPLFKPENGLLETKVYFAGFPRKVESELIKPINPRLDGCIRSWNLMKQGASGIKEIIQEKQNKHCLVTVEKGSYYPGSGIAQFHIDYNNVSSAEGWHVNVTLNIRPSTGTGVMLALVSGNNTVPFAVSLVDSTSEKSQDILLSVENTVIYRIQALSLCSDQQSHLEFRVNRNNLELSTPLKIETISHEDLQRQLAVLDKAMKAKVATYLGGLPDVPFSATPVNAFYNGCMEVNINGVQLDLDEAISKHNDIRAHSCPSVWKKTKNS
Description: The competition (IC50) ELISA was performed using biotinylated tracer peptide JBS0684 to compete for Protein S-binding with candidate peptides. Peptides that compete with the tracer bind the same region of Protein S as the tracer (and each other). Ninety-six well PolySorp plates (Nunc) were coated with 3 μg/mL Protein S in coating buffer (15 mM Na₂CO₃, 35 mM NaHCO₃, pH 9.6) over night. […] Plates were then washed three times with HNaT. JBS0684 was applied at a concentration corresponding to the EC90 value determined in the binding ELISA. A competitor stock solution of peptide (10 mM) was diluted 1/33.3 in HNaT without HSA, and a serial 1/3 dilution was prepared with HNaT with 3% DMSO. The dilution was further diluted with the biotinylated tracer peptide in a ratio of […] (20 μl competitor dilution and 100 μl tracer peptide). The mixture of competitor and tracer peptide was applied to the Protein S-coated microtiter plate and incubated for 1.5 hours. The plates were washed three times with HNaT. Peptide-Protein S binding was detected by applying HRP-conjugated streptavidin to the microtiter plate, incubating the mixture for one hour, washing the plate three times with HNaT, applying TMB (3,3′5,5′-Tetramethylbenzidin), and detecting the subsequent chromogenic conversion of TMB by HRP. IC50 measurements of peptides are provided herein (see, e.g., Table 3). […]

human Protein S [2] = molecular target: T1, human Protein S; test: Biacore (SPR), Protein S immobilized, 25 °C
Description: Protein S affinity also was determined via Biacore (Biacore 3000 or Biacore T200) using human full-length Protein S and human GAS6. Briefly, 1000 RU of Protein S or GAS6 were immobilized on a CMS chip. In order to probe the kinetics of Protein S binding peptides to Protein S, the peptides were injected at various concentrations in a HBS-buffer containing 3 mM CaCl₂ and 1% DMSO to the flow cell and allowed to interact with the immobilized proteins on the sensor chip. The chip could be regenerated with 4 M MgCl₂ in HBS-buffer. Sensorgrams were fitted to a Langmuir binding model for the determination of kₒₙ and koff and the calculation of KD. Peptides were tested on their specificity to Protein S with peptide binding studies on the anti-target GAS6.

human Protein S [3] = molecular target: T1, human Protein S; test: LANCE TR-FRET competition; Eu-labeled Protein S; competitor tracer JBS0684
Description: (§1) Peptides also were characterized in a competition, homogenous europium-based TR-FRET assay (LANCE IC50 assay) using JBS0684 as a tracer (i.e., competitor for Protein S binding). The following reagents were mixed together in a Perkin-Elmer ProxiPlate MTP well (indicated concentration is the final concentration): Eu-labeled Protein S (10 nM), Ulight™-labeled Streptavidin (100 nM), tracer (JBS0684 (300 nM)), and peptide (titrated in three-fold dilution steps). The final volume was 50 μl/well. The reaction mix was incubated for 1 hour at room temperature, then the fluorescence emission at 665 nm was recorded on a multi-mode reader (SpectraMax® M5, Molecular Devices) using the following instrument settings: Ex 340 nm, Em 665 nm, delay 50 μsec, integration 100 μsec, reads 100. Binding of tracer peptides to soluble europium-labeled Protein S was detected by Streptavidin labeled with an acceptor fluorophor (ULight™). Inhibition of tracer-binding to Protein S by a non-biotinylated peptide results in a decrease of TR-FRET between the Eu-labeled Protein S and ULight™-labeled Streptavidin. IC50 values were obtained from peptide titration curves at constant tracer concentration using non-linear regression of the fluorescence emission signals at 665 nm.
Several peptides having multiple substitutions in the JBS2572 amino acid sequence were synthesized and evaluated using LANCE IC50 and CAT assays described above. For the assays, pooled normal plasma was supplemented with 3 nM APC and triggered with 6 pM TF, and 15 μM phospholipids (DOPC/POPS 80/20). Stock APC was diluted with TF-PL-MIX to 24 nM (plasma concentration: 3 nM).

human Protein S [4] = molecular target: T1, human Protein S; test: LANCE TR-FRET competition; Eu-Protein S 10 nM, competitor tracer JBS0684 300 nM; Molecular Devices M5 reader
Description: as §1

Ac-TGLVSAGWYDYNFDHYREFT-NH2 (also called parent peptide JBS2572) [JBS2572]
fold increase in affinity compared to JBS2512 (human Protein S [1]): 1.6 fold
Kd (human Protein S [2]): 6 nM
koff (human Protein S [2]): 0.00148 s⁻¹
kon (human Protein S [2]): 248000 M⁻¹ s⁻¹
IC50 (human Protein S [3]): 9.7 nM
IC50 (human Protein S [4]): 49 nM

Reference: patent US20150246947A1 (BAXALTA, published 2015)
